Test results published in patent publication US9096835B2, “DNA polymerase” (Medical Research Council, priority 2003, dated 2015).

What was measured:
Format in all cases: biochemical
[1] = PCR with dATP replaced by FITC-12-dATP; conditions: 50 cycle PCR, dATP completely replaced
Procedure: (§1) A PCR assay was used to screen and rank clones. Briefly, clones were normalized for activity in PCR with matched primers 3, 4 and activity with mismatched primers 1 and 2 (1 μM each) determined at minimal cycle number (15-25 cycles). Extension capability for different mismatches was determined by the same assay using mismatch primers 2 (C•C mismatch), 5 (A•A mismatch), 6 (G•G mismatch), 7 (G•A mismatch) with matched primer 3 or primer 1 (A•G mismatch) with matched primer 4. Incorporation of unnatural substrates in 50 cycle PCR was carried out using standard conditions and 50 μM […] dNTPs (Promega) or 50 μM FITC-12-dATP (Perkin-Elmer), Rhodamine-5-dUTP (Perkin-Elmer) or Biotin-16-dUTP (Roche) with equivalent amounts of the other 3 dNTPs (all 50 μM). Long PCR was carried out using a two-step cycling protocol as described (22) 94° C. for 2 minutes, followed by 20 cycles of (94° C. 15 sec, 68° C. 30 min) using 5 ng of phage λ DNA (New England Biolabs) template and either primers 9, 10, 11 with primer 12 or primer 13 with primers 10, 14.

PCR with Biotin-16-dUTP = conditions: 50 cycle PCR, complete replacement
Procedure: as §1

[2] = system: abasic sites and 5-hydroxy hydantoins; assay: Hairpin ELISA lesion bypass screen; conditions: ELISA based activity screen
Excerpt: The below protocol is a sensitive method to measure polymerase activity both for the incorporation of unnatural nucleotide substrates (added to the reaction mixture) or the extension or replication of unnatural nucleotide substrates (incorporated as part of the hairpin oligo).
The assay comprises a hairpin oligonucleotide which constitutes both primer and template in one. In contains as part of the hairpin a biotinylated dU residue, which allows capture of the hairpin oligonucleotide on streptavidin-coated surfaces.
The oligonucleotide folds up into a hairpin with a 5′ overhang, which serves as the template strand for the polymerase (typical sequence: 5′-AGCTACCATGCCTGCACGCAGTCGGCATCCGTCGCGACCACG TT5 TTCGTGGTCGCGACGGATGCCG-3′ (SEQ ID NO: 52), bases involved in hairpin formation are underlined, 3′ base is in bold, 5=dU-biotin).
Extension reactions are carried out in the presence of small amounts of a labelled nucleotide typically DIG-16-dUTP. Product is captured (for example on a streptavidin coated ELISA plate) and incorporation of labelled nucleotide into the product strand is measured (using for example an anti-DIG antibody) and taken as a measure of polymerase activity. […]

wtTaq: Thermus aquaticus (Taq) wild type DNA polymerase [reference compound]
PCR amplification with FITC-12-dATP [1]: unable to generate any amplification products
PCR amplification with Biotin-16-dUTP (PCR with Biotin-16-dUTP): unable to generate any amplification products

B1: 3A10: third round clone, abasic site bypass; SEQ ID NO: 86 (protein)
chain: MAMLPLFEPKGRVLLVDGHHLAYRTFFALKGLTTSRGEPVQVVYGFAKSLLKALKEDGYKAVFVVFDAKAPSFRHKAYEAYRAGRAPTPQDFPRQLALIKELVDLLGFTRLEVPGYEADDVLATLAKKAEKEGYEVRILTADRGLYQLVSDRVAVLHPEGHLITPEWLWEKYGLRPEQWVDFRALVGDPSDNLPGVKGIGEKTALKLLKEWGSLENLLKNLDRVKPENVREKIKAHLEDLRLSLELSRVRTDLPLEVDLAQGREPDREGLRAFLERLEFGSLLHEFGLLESPKALEEAPWPPPEGAFVGFVLSRKEPMWADLLALAAARGGRVHQAPEPYKALRDLKEARGLLAKDLSVLALREGLGLPPGDDPMLLAYLLDPSNTTPEGVARRYGGEWTEEAGERAALSERLFANLWGRLEGEERLLWLYREVERPLSAVLAHMETTGVRLDVAYLRALSLEVAEEIARLEAEVFRLAGRPFNLNSRDQLERVLFDELGLPAIGKTEKTGKRSTSAAVLEALREAHPIVEKILQYRELTKLKSTYIDPLPDLIHPRTGRLHTRFNQTATATGRLSSSDPNLQNIPVRTPLGQRIRRAFIAEEGWLLVVLDYSQMELRVLAHLSGDENLIRVFQEGKDIHTQTASWMFGVPPEAVDPLMRRAAKTVNFGVLYGMSAHRLSQELSIPYEEAVAFIERYFQSFPKVRAWIEKTLEEGRRRGYVETLFGRRRYVPDLNARMKSVRGAAERMAFNMPVQGTAADLMKLAMVKLFPRLREMGARMLLQVHDELLLEAPQARAEEVAALAKEAMEKAYPLAVPLEVEVGIGEDWLSAKE
modifications: Mutant Taq polymerase
proficiency at lesion bypass compared with wild type Taq [2]: up to two orders of magnitude

B2: M1: Taq mutant G84A, D144G, K314R, E520G, F598L, A608V, E742G; SEQ ID NO: 1 (protein)
chain: MRGMLPLFEPKGRVLLVDGHHLAYRTFHALKGLTTSRGEPVQAVYGFAKSLLKALKEDGDAVIVVFDAKAPSFRHEAYGGYKAARAPTPEDFPRQLALIKELVDLLGLARLEVPGYEADDVLASLAKKAEKEGYEVRILTADKGLYQLLSDRIHVLHPEGYLITPAWLWEKYGLRPDQWADYRALTGDESDNLPGVKGIGEKTARKLLEEWGSLEALLKNLDRLKPAIREKILAHMDDLKLSWDLAKVRTDLPLEVDFAKRREPDRERLRAFLERLEFGSLLHEFGLLESPKALEEAPWPPPEGAFVGFVLSRREPMWADLLALAAAAGGRVHRAPEPYKALRDLKEARGLLAKDLSVLALREGLGLPPGDDPMLLAYLLDPSNTTPEGVARRYGGEWTEEAGERAALSERLFANLWGRLEGEERLLWLYREVERPLSAVLAHMEATGVRLDVAYLRALSLEVAEEIARLEAEVFRLAGHPFNLNSRDQLERVLFDELGLPAIGKTEKTGKRSTSAAVLGALREAHPIVEKILQYRELTKLKSTYIDPLPDLIHPRTGRLHTRFNQTATATGRLSSSDPNLQNIPVRTPLGQRIRRAFIAEEGWLLVVLDYSQIELRVLAHLSGDENLIRVFQEGRDIHTETASWMFGVPREAVDPLMRRAAKTINFGVLYGMSAHRLSQELAIPYEEAQAFIERYFQSFPKVRAWIEKTLEEGRRRGYVETLFGRRRYVPDLEARVKSVRGAAERMAFNMPVQGTAADLMKLAMVKLFPRLEEMGARMLLQVHDELVLEAPKERAEAVARLAKEVMEGVYPLAVPLEVEVGIGEDWLSAKE
modifications: Mutant Thermus aquaticus DNA polymerase
size of amplification product fully labelled with FITC-12-dATP [1]: 0.4 kb
size of amplification products fully labelled with Biotin-16-dUTP (PCR with Biotin-16-dUTP): 2.7 kb

B3: 3D1: third round clone, four mismatch extension; SEQ ID NO: 98 (protein)
chain: MAMLPLFEPKGRVLLVDGHHLAYRTFFALKGPTTSRGEPVQVVYGFAKSLLKALKEDGYKAVFVVFDAKAPSFRHKAYEAYRAGRAPTPEDFPRQLALIKELVDLLGFTRLEVPGYEADDVLATLAKKAEKEGYEVRILTADRGLYQLVSDRVAVLHPEGHLITPEWLWEKYGLRPEQWVDFRALVGDPSDNLPGVKGIGEKTALKLLKEWGSLENLLKNLDRVKPENVREKIKAHLEDLRLSLELSRVRTDLPLEVDLAQRREPDREGLRAFLERLEFGSLFHEFGLLESPKALEEAPWPPPEGAFVGFVLSRKEPMWADLLALAAARGGRVHRAPEPYKALRDLKEARGLLAKDLSVLALREGLGLPPGDDPMLLAYLLDPSNTTPEGVARRYGGEWTEEAGERAALSERLFANLWGRLEGEERLLWLYREVERPLSAVLAHMEATGVRLDVAYLRALSLEVAEEIARLEAEVFRLAGHPFNLNSRDQLEMVLFDELRLPALGKTQKTGKRSTSAAVLEALREAHPIVEKILQYRELTKLKSTYIDPLSDLIHPRTGRLHTRFNQTATATGRLSSSDPNLQNIPVRTPLGQRIRRAFIAEEGWLLVVLDYSQIELRVLAHLSGDENLIRVFQEGRDIHTETASWMFGVPREAVDPLMRRAAKTINFGVLYGMSAHRLSQELAIPYEEAQAFIERYFQSFPKVRAWIEKTLEEGRRRGYVETLFGRRRYVPDLEARVKSVREAAERMAFNMPVQGTAADLMKLAMVKLFPRLGETGARMLLQVHDELVLEAPKERAEAVARLAKEAMEGVYPLAVPLEVEVGIGEDWLSAKG
modifications: Mutant Taq polymerase
proficiency at lesion bypass compared with wild type Taq [2]: up to two orders of magnitude
